The assay deals with RSV F DS-Cav1 (human respiratory syncytial virus) (UniProt P03420). As to the kind of experiment: BLI; […] (AHC) biosensors, […] (300-0.41 nM); Octet RED96e; […].
Sequence of UniProt P03420 (P03420 26-513): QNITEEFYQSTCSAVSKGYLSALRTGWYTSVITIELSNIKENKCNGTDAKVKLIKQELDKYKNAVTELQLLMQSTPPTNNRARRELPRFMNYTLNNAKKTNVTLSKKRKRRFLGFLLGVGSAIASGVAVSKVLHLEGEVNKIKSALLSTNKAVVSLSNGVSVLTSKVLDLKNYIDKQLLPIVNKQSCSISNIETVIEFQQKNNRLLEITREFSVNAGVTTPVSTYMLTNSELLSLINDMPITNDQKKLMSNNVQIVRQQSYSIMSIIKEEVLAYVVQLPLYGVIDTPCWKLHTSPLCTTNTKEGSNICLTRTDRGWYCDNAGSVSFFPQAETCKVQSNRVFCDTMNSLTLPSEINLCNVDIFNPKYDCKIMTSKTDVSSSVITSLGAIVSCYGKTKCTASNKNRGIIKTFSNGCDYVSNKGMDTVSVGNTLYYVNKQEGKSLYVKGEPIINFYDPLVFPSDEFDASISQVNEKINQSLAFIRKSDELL

Sequence of MPE8 Fab (VH): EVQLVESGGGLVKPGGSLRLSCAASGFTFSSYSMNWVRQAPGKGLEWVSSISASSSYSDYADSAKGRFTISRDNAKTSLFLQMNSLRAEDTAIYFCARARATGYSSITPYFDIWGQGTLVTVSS
Sequence of MPE8 Fab (VL): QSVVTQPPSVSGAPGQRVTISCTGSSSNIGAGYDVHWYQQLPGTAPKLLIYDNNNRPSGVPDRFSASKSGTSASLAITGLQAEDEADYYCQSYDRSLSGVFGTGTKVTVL

For the substance MPE8 Fab, the Kd is below 1 pM, the koff is below 1e-07 s⁻¹ and the kon amounted to 360000 M⁻¹ s⁻¹.
